# B1: FvPR10.14-P (FvWRKY75 probe) (dsDNA)
# DNA 1: ATATATGGGATAGCCAATGTTGACTGCTCGACATTACGTGTATA
# DNA 2: TATACACGTAATGTCGAGCAGTCAACATTGGCTATCCCATATAT
# Target: FvWRKY75 (Fragaria vesca, UniProt A0A1S5SLB0 1-190)
# Experiment: EMSA; EMSA Kit (Beyotime), according to Wang, Shi, et al. 2022; buffer, salt, pH and temperature not stated
# Conditions: protein: recombinant; tags: His (as stated); blunt
# FvWRKY75, sequence (A0A1S5SLB0 entry or part of it): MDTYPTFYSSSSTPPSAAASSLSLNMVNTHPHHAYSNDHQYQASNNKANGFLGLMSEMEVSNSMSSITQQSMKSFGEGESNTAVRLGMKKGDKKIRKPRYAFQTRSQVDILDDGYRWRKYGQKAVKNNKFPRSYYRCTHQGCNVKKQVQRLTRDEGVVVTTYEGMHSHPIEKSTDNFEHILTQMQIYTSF
binder,measurement,value
B1,binding result,binds
